Like-named read-outs stand apart in the source and are kept apart here.
Tests used:
Experiment in all cases: EMSA
FANCD2 WT full-length [1] = biological target: T1, FANCD2 WT full-length (human, UniProt Q9BXW9 1-1451)
F2 [2] = biological target: T2, F2 (human, UniProt Q9BXW9 589-840)
F4 [3] = biological target: T3, F4 (human, UniProt Q9BXW9 1179-1451)
F3Mut1aa [4] = biological target: T4, F3Mut1aa (human, UniProt Q9BXW9 841-1178, K865A)
F1Mut5aa (K-A) [5] = biological target: T5, F1Mut5aa (K-A) (human, UniProt Q9BXW9 1-588, S29A;K30A;K31A;T32A;K34A)
F3 = F3 (human, UniProt Q9BXW9 841-1178)
F1 = F1 (human, UniProt Q9BXW9 1-588)
F2 [6] = biological target: T2, F2; remark: listed apart in the source
F4 [7] = biological target: T3, F4; remark: listed apart in the source
F3Mut1aa [8] = biological target: T4, F3Mut1aa; remark: listed apart in the source
F1Mut5aa (K-A) [9] = biological target: T5, F1Mut5aa (K-A); remark: listed apart in the source
FANCD2 WT full-length [10] = biological target: T1, FANCD2 WT full-length; remark: listed apart in the source

T5 sequence (Q9BXW9 1-588 S29A/K30A/K31A/T32A/K34A): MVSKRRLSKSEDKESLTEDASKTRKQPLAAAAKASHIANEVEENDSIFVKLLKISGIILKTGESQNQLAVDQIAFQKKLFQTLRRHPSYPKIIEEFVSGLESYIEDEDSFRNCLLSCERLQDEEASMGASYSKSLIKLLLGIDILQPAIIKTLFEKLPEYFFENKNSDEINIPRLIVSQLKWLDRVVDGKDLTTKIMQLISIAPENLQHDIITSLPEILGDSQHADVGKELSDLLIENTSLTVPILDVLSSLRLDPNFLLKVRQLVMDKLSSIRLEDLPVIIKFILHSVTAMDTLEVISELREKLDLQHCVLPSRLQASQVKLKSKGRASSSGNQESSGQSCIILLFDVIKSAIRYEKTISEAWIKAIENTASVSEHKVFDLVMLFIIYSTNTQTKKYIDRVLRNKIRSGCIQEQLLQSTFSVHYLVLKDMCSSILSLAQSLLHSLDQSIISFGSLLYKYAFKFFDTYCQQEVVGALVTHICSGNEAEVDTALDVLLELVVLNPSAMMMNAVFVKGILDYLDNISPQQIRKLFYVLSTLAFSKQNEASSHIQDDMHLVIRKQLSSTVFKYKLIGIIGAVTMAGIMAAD
T1 sequence (Q9BXW9 whole entry): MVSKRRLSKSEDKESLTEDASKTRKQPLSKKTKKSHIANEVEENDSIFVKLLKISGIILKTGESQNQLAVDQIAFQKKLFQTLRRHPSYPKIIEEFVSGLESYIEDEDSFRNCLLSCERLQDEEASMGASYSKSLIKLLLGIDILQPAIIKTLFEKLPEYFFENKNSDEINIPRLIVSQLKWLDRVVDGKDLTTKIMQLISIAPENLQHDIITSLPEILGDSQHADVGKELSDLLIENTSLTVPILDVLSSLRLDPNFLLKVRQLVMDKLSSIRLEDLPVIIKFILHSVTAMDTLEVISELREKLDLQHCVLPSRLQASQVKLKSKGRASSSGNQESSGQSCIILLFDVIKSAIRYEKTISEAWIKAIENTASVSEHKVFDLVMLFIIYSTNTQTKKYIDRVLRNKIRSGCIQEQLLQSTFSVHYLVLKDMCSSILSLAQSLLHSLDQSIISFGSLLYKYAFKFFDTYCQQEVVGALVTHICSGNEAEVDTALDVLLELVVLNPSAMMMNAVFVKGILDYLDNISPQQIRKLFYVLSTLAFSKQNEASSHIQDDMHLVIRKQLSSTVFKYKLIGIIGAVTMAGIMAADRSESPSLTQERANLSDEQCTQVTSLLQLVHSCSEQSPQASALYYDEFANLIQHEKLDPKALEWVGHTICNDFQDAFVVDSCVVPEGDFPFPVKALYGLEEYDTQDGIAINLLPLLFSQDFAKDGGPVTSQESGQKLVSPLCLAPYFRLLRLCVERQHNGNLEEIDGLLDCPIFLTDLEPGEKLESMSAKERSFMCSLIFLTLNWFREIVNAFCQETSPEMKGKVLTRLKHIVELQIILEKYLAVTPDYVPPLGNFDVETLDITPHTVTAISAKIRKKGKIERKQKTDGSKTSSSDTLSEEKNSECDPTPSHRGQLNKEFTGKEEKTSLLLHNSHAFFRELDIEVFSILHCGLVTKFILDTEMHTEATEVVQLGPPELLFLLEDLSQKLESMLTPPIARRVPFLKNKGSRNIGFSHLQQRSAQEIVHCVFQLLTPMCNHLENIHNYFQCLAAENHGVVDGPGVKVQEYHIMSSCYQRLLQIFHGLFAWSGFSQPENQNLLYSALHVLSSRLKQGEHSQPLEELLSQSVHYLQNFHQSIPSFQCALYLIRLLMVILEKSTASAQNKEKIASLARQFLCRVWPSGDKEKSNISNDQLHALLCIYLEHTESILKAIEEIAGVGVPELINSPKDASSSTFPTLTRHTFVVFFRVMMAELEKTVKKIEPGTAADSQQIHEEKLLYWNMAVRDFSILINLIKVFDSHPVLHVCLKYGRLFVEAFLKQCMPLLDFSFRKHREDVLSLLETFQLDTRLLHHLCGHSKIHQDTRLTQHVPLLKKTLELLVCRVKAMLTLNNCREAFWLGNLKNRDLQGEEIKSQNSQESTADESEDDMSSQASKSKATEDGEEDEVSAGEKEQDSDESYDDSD
T3 sequence (Q9BXW9 1179-1451): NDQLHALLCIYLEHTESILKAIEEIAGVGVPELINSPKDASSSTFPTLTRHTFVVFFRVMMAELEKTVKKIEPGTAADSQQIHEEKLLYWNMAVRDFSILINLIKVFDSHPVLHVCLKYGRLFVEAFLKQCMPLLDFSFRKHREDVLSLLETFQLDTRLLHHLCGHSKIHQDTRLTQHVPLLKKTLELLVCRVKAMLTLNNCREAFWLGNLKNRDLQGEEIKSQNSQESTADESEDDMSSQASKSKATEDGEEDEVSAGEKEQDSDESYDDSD
T2 sequence (Q9BXW9 589-840): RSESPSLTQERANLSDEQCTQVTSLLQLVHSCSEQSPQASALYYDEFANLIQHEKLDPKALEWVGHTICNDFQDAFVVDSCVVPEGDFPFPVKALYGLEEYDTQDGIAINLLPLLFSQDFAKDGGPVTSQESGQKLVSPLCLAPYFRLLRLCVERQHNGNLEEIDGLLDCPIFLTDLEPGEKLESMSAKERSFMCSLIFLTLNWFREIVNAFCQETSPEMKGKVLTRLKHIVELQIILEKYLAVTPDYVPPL
T4 sequence (Q9BXW9 841-1178 K865A): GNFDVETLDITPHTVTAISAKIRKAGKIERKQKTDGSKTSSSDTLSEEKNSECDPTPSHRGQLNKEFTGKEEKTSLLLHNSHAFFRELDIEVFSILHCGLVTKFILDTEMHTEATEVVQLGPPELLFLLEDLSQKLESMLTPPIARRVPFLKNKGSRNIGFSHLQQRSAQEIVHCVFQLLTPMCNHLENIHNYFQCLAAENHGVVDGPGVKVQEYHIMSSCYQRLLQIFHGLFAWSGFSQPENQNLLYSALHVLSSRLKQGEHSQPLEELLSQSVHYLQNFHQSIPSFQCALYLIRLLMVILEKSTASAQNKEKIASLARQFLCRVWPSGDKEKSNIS
F3, sequence (Q9BXW9 841-1178): as the sequence (Q9BXW9 841-1178 K865A) above, with A25K counted along it
F1, sequence (Q9BXW9 1-588): as the sequence (Q9BXW9 1-588 S29A/K30A/K31A/T32A/K34A) above, with A29S, A30K, A31K, A32T, A34K counted along it

| Binder | binding result (FANCD2 WT full-length [1]) | binding result (F2 [2]) | binding result (F4 [3]) | binding result (F3Mut1aa [4]) | binding result (F1Mut5aa (K-A) [5]) | binding result (F3) | binding result (F1) | binding result (F2 [6]) | binding result (F4 [7]) | binding result (F3Mut1aa [8]) | binding result (F1Mut5aa (K-A) [9]) | binding result (FANCD2 WT full-length [10]) |
| --- | --- | --- | --- | --- | --- | --- | --- | --- | --- | --- | --- | --- |
| ssDNA (SS) (ssDNA) DNA: GGGTGAACCTGCAGGTGGGCAAAGATGTCCTAGCAATGTAATCGTCAAGCTTTATGCCGT | binds | no binding | no binding | no binding | no binding | binds | binds | – | – | – | – | – |
| Holliday junction (HJ) (structured_DNA) DNA 1: GGGTGAACCTGCAGGTGGGCAAAGATGTCCTAGCAATGTAATCGTCAAGCTTTATGCCGT DNA 2: ACGCTGCCGAATTCTACCAGTGCCAGCGACGGACATCTTTGCCCACCTGCAGGTTCACCC DNA 3: ACGGCATAAAGCTTGACGATTACATTGCTACATGGAGCTGTCTAGAGGATCCGACTATCG DNA 4: CGATAGTCGGATCCTCTAGACAGCTCCATGGTCGCTGGCACTGGTAGAATTCGGCAGCGT | – | – | – | – | – | – | – | no binding | no binding | no binding | no binding | binds |

Reference: publication PMC5737651
